B1: VPS39 (parent)
chain: QQVKCIITEEKVCMVCKKKIGNSA

Variants of: B1
Test: protein stability index of a GFP-peptide fusion (GPS, HEK-293T) (PSI 1-6); higher = more stable
Conditions: c terminus: a fixed tail appended
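Note: lentivirally expressed fusions sorted by FACS into six bins by GFP to DsRed ratio, PSI derived from sequencing read proportions per bin multiplied by bin number.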

Protein stability index, by site and new letter:
K17: S 2.82 | M 2.29 | N 3.05 | V 1.54 | P 3 | F 2.85 | L 1.42 | Q 3.11 | I 1.74 | R 2.27 | H 2.46 | W 2.66 | D 3.68 | E 3.21 | G 3.58 | Y 3.09 | C 3.34 | T 2.5
K19: A 2.38 | G 2.48 | C 3.48 | D 3.52 | M 1.67 | V 2.5 | F 1.72 | T 2.66 | W 1.76 | R 2.28 | P 2.14 | L 2.56 | E 2.89 | S 2.25 | Q 2.19 | H 2.12 | N 2.15
K4: E 3.28 | Y 1.42 | C 3.6 | Q 2.77 | A 2.72 | M 1.83 | S 2.22 | P 3.12 | F 1.42 | T 2.44 | V 2.19 | D 2.68 | I 1.19 | H 2.44 | G 2.81 | R 2.53 | W 2.25 | L 1.77 | N 2.83
K11: N 2.89 | A 3.64 | G 2.35 | F 1.75 | V 2.39 | R 2.9 | W 2.08 | S 2.9 | P 3.15 | C 4.08 | M 1.8 | Y 1.77 | E 2.87 | I 2.44 | L 1.87 | T 2.55 | D 2.52 | Q 2.84 | H 3.3
I6: E 3.96 | W 1.75 | M 2.93 | N 3.25 | K 3.46 | G 2.47 | S 3.5 | Q 3.13 | H 3.47 | D 3.82 | V 3.05 | A 2.67 | R 2.6 | F 2.6 | Y 2.49 | P 4.07 | C 3.34 | L 2.45 | T 3.38
V3: C 4.46 | L 2.77 | E 3.47 | F 1.89 | Q 3.32 | T 2.82 | W 1.49 | H 5.16 | A 2.81 | D 3.92 | P 3.49 | I 2.38 | S 3.17 | G 3.01 | Y 2.58 | M 2.8 | R 2.5 | N 2.8 | K 2.89
I7: T 2.69 | E 3.01 | G 2.77 | Q 2.76 | C 4.47 | A 3.38 | V 3.4 | L 2.11 | S 3.06 | H 4.39 | F 2.97 | R 2.86 | K 2.9 | W 2.46 | D 3.49 | N 2.84 | P 4.23 | M 3.54 | Y 3.28
M14: K 3.44 | Q 3.06 | C 4.14 | Y 2.57 | F 2.89 | N 2.67 | T 3.3 | P 3.15 | W 2.02 | E 3.61 | V 2.8 | A 2.49 | I 2.14 | H 3.13
E9: G 2 | K 2.49 | Q 1.85 | R 1.54 | I 1.81 | C 1.8 | W 1.35 | F 2.94 | Y 1.9 | T 2.08 | M 1.33 | D 3.29 | N 1.87 | L 1.73 | P 2.46 | A 2.22 | V 1.95 | S 3.77 | H 1.85
V15: C 3.26 | Q 2.6 | Y 2.17 | S 3.74 | G 2.71 | D 3.34 | A 3.32 | R 3.07 | N 3.08 | P 3.99 | F 2.92 | T 3.68 | E 4.38 | W 2.97 | M 2.83 | L 2.82 | H 3.43 | K 3.05 | I 2.27
E10: K 2.54 | I 2.34 | T 2.41 | R 2.23 | L 1.47 | Y 2.65 | F 1.97 | Q 2.29 | C 3.05 | H 2.13 | M 2.4 | N 2.01 | A 1.9 | P 2.69 | G 2.41 | W 2.44 | D 1.95 | S 2.03
T8: G 3.42 | N 2.9 | H 2.81 | W 2.87 | I 2.12 | P 4.09 | D 3.08 | Y 2.6 | L 2.16 | A 2.45 | K 2.47 | E 3.48 | F 1.52 | C 2.48 | R 2.45 | V 2.12 | Q 3.34
Q1: Y 1.64 | S 2.57 | T 2.52 | V 1.11 | W 1.98
C5: E 3.75 | D 3.86 | P 3.32 | V 2.22 | K 3.61 | N 2.79 | W 1.94 | M 1.99 | A 3.02 | R 3.48 | I 2.24 | H 3.21 | T 3.16 | F 1.96 | L 2.34 | G 2.82 | Q 3.07 | Y 2.69
Q2: P 2.77 | A 2.94 | C 4.17 | E 3.37 | D 3.15 | F 2.17 | S 3.77 | N 2.26 | R 2.59 | K 2.59 | V 3.17 | M 2.93 | Y 2.37 | G 2.32 | L 2.4 | I 1.45 | T 2.61 | H 3.05 | W 2.72
C16: E 4.29 | I 2.19 | M 3.13 | R 4.5 | A 3.96 | L 3.07 | N 3.88 | Q 3.93 | G 4.28 | H 3.79 | F 3.15 | T 3.72 | S 3.45 | Y 3.69 | K 3.41 | D 4.91 | P 4.22 | W 2.5
K18: V 1.78 | Q 2.5 | C 2.02 | M 1.57 | H 3.24 | Y 1.41 | R 2.33 | F 1.98 | G 2.56 | L 2.16 | P 2.37 | D 3.4 | I 2.43 | N 2.94 | A 2.88 | T 2.08 | E 3.09 | S 3.09 | W 1.02
V12: F 2.11 | R 2.88 | L 2.86 | E 3.96 | I 3.06 | N 3.68 | D 3.87 | T 2.69 | S 3.41 | Y 2.31 | P 3.44 | W 1.98 | K 2.94 | G 3.55 | H 2.64 | Q 2.5 | A 3.41 | C 2.09 | M 2.81
C13: E 4.41 | V 2.59 | G 3.48 | R 3.95 | I 3.09 | H 3.62 | D 4.67 | T 3.83 | L 3.1 | K 2.82 | M 2.98 | P 3.78 | Y 2.91 | Q 3.78 | W 2.6 | N 4.4 | S 3.52 | A 3.88 | F 2.54

Source: the supplement of paper PMC10567573
